Source: the RNAGym collection of RNA variant scans (doi:10.7554/elife.90254)

B1: LINE1-full (parent)
chain: UACGUAGGUGGUUUUCCCCUGAUAGUGCUAAGGGGGCCUGGAAGUUUGGACUGGGCAGAGCUCAACACAGCGUGGCAAAGUGGCUGUGGCUAGACUGCCUCUCUGGAUUCCUCGUCACUCAGCAGGGCAUCUCUGAGAGAAAUGCC

Variants of: B1
Experiment: self-cleavage, relative activity (ratio to wild type); higher = more cleavage; in vitro, sequencing; the parent is a self-cleaving ribozyme

Variant | self-cleavage
U47A C120A | 1.36
G58A A121G | 0.13
G33U A77G | 1.78
C66U A142G | 0.05
A22U U26C | 1.18
U12C U100C | 1.6
U47C U109A | 1.6
U52C C101G | 1.31
C95A U102C | 0.11
G49U C98A | 0.04
A22U U45A | 0.83
C28U C84U | 0.25
U132A U143C | 1.82
U20G U104A | 1.29
C113U U119A | 0.82
U119C C128U | 1.13
U85A C113U | 0.06
G55U U132C | 0.16
U14G U47C | 1.02
G25A A141G | 0.96
G82A U119A | 1.96
U39A C71U | 0.97
U81A C103U | 0.63
U15A G35U | 1.16

Variant | self-cleavage
U112C A124G | 0.64
U108C C123U | 2.22
G49A U134A | 1.05
U9A G126A | 0.82
U5G U100C | 1.15
C56A U100C | 0.1
A43G G80A | 1.48
U109C C133U | 1.37
U87C U130C | 0.35
A43G G70A | 0.11
G83A U85C | 0.09
A77G U87C | 0.42
C68U G122U | 0.21
U85C U134A | 0.14
A30G A136G | 1.23
U5A A59G | 0.11
U9C A69G | 0.83
A64U A65U | 0.02
A6U A67U | 0.22
A24U C51U | 0.84
A92G A136G | 0.08
U109C C111U | 1.31
U62G C84G | 0.49
A57U A107G | 0.14

Variant | self-cleavage
C118U A138U | 0.2
A138U A142G | 0.93
U12C C68U | 0.35
A78G G105A | 1.8
U13A C111U | 0.89
U29A A142C | 0.56
U81A G89A | 0
A24U C116A | 1.7
G70A A129G | 0.09
A57U U85A | 0.05
U12G A129G | 1.14
C37U U132C | 1.21
U85C A107G | 0.15
U102A A136G | 1.78
C19U A136U | 1.41
U39C U100A | 0.53
G35A U119C | 1.3
A31G A121G | 1.24
A31G C145G | 1.63
A24G A67G | 0.45
G60U U104C | 0.04
C16U U112C | 1.71
U73C U85C | 0.08
A50U U73C | 2.09

Variant | self-cleavage
U45A U87C | 0.24
C68A U109C | 0.06
A65U G139A | 0.15
U81G U100C | 1.43
U20A A30G | 0.9
U1C U102C | 1.03
U109C A121C | 0.99
U5A U100C | 0.82
C28A A79U | 1.47
U12C C19A | 0.85
A67C U96C | 0.12
U46A A79G | 1.06
U96A U104A | 0.07
U52A A136G | 1.4
U45C U112G | 1.31
G33U A138G | 1.68
U73C C90A | 0.06
A77G A121U | 2.74
C128G | 0.98
C84G C146A | 0.1
A2G C76U | 1.17
U52C | 1.24
A94G U100C | 0.44
G86U A107G | 0.02

Variant | self-cleavage
U47A U119A | 1.34
U29C U62C | 0.15
G8A A121G | 0.54
A22C U46A | 2.21
A77U U112C | 1.29
U45C C76U | 1.89
G4C A107G | 0.29
U26A A77G | 1.84
A92G A142G | 0.14
U15C G33A | 1.05
U26A A142G | 1.2
G40A U132C | 1.03
U9A U143C | 0.94
G122A A138G | 0.78
U5A A124G | 1.75
C38U C98G | 0.12
C68U U108A | 0.2
A92G U112A | 0.09
U9C U52A | 2.31
U9C U52C | 1.36
U20A A124U | 0.91
U108C A136G | 1.83
U26A A124C | 1.4
G60A A138U | 0.05

Variant | self-cleavage
A2G U96C | 0.22
C98U U108C | 0.48
A43G G127A | 0.98
A24G U45C | 1.12
G25C C98G | 0.25
A30U G58A | 0.18
C61A U102C | 0.05
U47C G88A | 0.07
A2G A140G | 0.94
A22U U85C | 0.26
G40U U85G | 0.28
U85C U108A | 0.28
G48A A141G | 1.42
A6C A57G | 0.92
U13G A67U | 0.13
A24U A31U | 1.09
U12C U29C | 1.44
U87A U143C | 0.11
A141G | 1.1
G54A A129U | 0.4
U46C A57G | 1.04
C19U A124G | 0.88
U45A U119C | 1.47
A2U U81A | 1.38

Variant | self-cleavage
U5C A94C | 0
U81C U85A | 0.16
U96C C113U | 0.05
U81C U119A | 1.59
U26A C90A | 0.04
G21A A57U | 0.02
A30G A107G | 1.2
A43U A65G | 0.02
A31C U134C | 1
U5A U46C | 1.03
A57G A67U | 0.06
G49A U143G | 1.1
U47C C111A | 1.79
A31G G72A | 0.77
A30U A79C | 1.19
U26C U130G | 1.61
A69U U73C | 0.05
A59C U102A | 1.1
U9G C116G | 1.18
A6U U62A | 0.06
U100C A142G | 1.93
G74U U143C | 1.48
U96G U108G | 0.16
